The results in this text go back to article PMC3689846.

Experiment in all cases: SPR
Assay [1] deals with Core.BaL-GT1 (germline-targeting variant of core gp120) (HIV-1 strain BaL (from the name)).
Assay [2] has as its target Core.HXB2 (core gp120 of HIV-1 strain HxB2, wild-type CD4 binding site) (HIV-1 strain HxB2).
Assay [3] has as its target eOD-GT6 (germline-targeting engineered outer domain of gp120) (HIV-1 strain HxB2).

Take 3BNC60 (mature) (antibody): the Kd in assay [1] stood at 0.004 µM.
Consider 12A12 (mature) (antibody), for which, in assay [2], the Kd was 0.006 µM.
“GL-3BNC60 (predicted germline precursor of 3BNC60) (antibody)” yielded a Kd in assay [2] of over 100 µM.
Still for that read-out and setting: the same measure for “GL-12A12 (predicted germline precursor of 12A12) (antibody)”: over 100 µM.
In the case of “GL-NIH45-46 (predicted germline precursor of NIH45-46) (antibody)”, in assay [1], the Kd was over 100 µM.
For “GL-PGV04 (predicted germline precursor of PGV04) (antibody)”, the Kd in assay [1] and in assay [2] was over 100 µM each time.
For “GL-PGV19 (predicted germline precursor of PGV19) (antibody)”, the Kd in assay [2] was over 100 µM; in assay [3] it was 0.019 µM.
For “GL-PGV20 (predicted germline precursor of PGV20) (antibody)”, the Kd in assay [2] was over 100 µM.
“GL-VRC-CH31 (predicted germline precursor of VRC-CH31) (antibody)” came in with a Kd in assay [2] of over 100 µM.
On to PGV20 (mature) (antibody), for which the Kd came out at 0.004 µM in assay [1], 0.019 µM in assay [2] and 0.006 µM in assay [3].
